Experimental findings from article PMC7782499, “Progerinin, an optimized progerin-lamin A binding inhibitor, ameliorates premature senescence phenotypes of Hutchinson-Gilford progeria syndrome” (Communications Biology, 2021) are described below.

Data set [1] is described as follows: Plasma protein binding, human. Type of data set: in vitro ADME. On the procedure:
(§1) At pre-set time-points, blood concentration of JH4 was determined by LC-MS/MS analysis[22],[23]. Other chemicals were also tested using similar protocol. In vitro ADME studies (plasma protein binding, CYP inhibition, microsomal stability, plasma stability, and hERG inhibition) were performed by New Drug Development Center (Daegu, Korea) using standard protocols[24],[25].

Data set [2] can be described thus: Plasma protein binding, rat. The data set is classed as in vitro ADME. The procedure:
as §1

Data set [3] deals with HEK293 cells. Description: Nuclear deformation in GFP-positive HEK293 cells transfected with lamin A / progerin vectors. Type of data set: cell-based. The conditions noted are these: for % of deformed nuclei in GFP positive cells, Ave: average (Fig S1E); for % of deformed nuclei in GFP positive cells: single replicates (Fig S1E). The source says:
(§2) GFP tag conjugated EV (GFP-EV), lamin A (GFP-LA), lamin A-C661A (GFP-LA-C661A), progerin (GFP-PG), and progerin-C611A (GFP-PG-C611A) vectors were used. GFP-PG and GFP-LA expression vectors were kindly provided by Misteli T. (National Cancer Institute [NCI], Frederick, MD, USA). GFP-LA-C661A and GFP-PG-C611A expression vectors were created by a single point mutation in CaaX motif. The CSIM sequence of lamin A, or progerin was mutated to ASIM. jetPEI (Polyplus Transfection, NY, USA) was used for transfection of expression vectors. Vectors were mixed with 1.5 μl of jetPEI in 150 mM NaCl solution. The mixture was added to HEK293 cells. After 4 h of incubation, medium was replaced with a new medium supplemented with 10% FBS.
For nuclear deformation cell counting, immunofluorescence staining was performed with lamin A or progerin antibodies. After staining, abnormal nuclear membrane was counted in randomly selected fields and expressed as percentages or actual numbers of total cells counted. Abnormalities of nuclear membrane were determined based on the following: (1) lamin A/C or progerin lining was extruded or engulfed, (2) having at least one bleb, and (3) irregular contour. Counting of cells with nuclear deformation was performed by three independent observers who were blinded to chemical treatment group. To analyze histone H3K9me3 intensity or expression, images were quantified using “color histogram” function of Image J software (National Institute of Health, NIH). Fluorescence intensities were subtracted by background signals.
(§3) Fig. S1. Generation of point mutation in CaaX motif of lamin A and progerin for blocking farnesylation.
(§4) A. Sequence of expression vector encoding LA-C661A was created by single point mutation in CaaX motif.
WT-LA with CSIM sequence was mutated to ASIM. B. Sequence of expression vector encoding progerin-
C611A with a single point mutation in CaaX motif. Progerin with CSIM sequence was mutated to ASIM. […]
D. Measurement of proteins (GFP-LA, GFP-LA-C661A, GFP- […]
Quantification of western blot by Ima ge J
software (National Institute of Health, NIH). E. Quantification of nuclear deformation in GFP positive
HEK293 cells. At least 100 cells/sample/experiment were counted by two independent researchers. The
statistical significance was analyzed by Student’s t -test. **p < 0.001, *p < 0.05, N.S: not significant. F. […]

Data set [4] concerns HEK293 cells. The data set can be described thus: GFP-tagged protein and H3K9me3 expression in transfected HEK293 cells.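 As to Relative H3K9me3 expression, Ave: Western blot band quantification of H3K9me3.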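 As to Relative H3K9me3 expression: Western blot band quantification of H3K9me3.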 Type of data set: cell-based. The conditions noted are these: for GFP relative expression (ratio), Ave: average (Fig S1F); for Relative H3K9me3 expression, Ave: average (Fig S1G); for GFP relative expression (ratio): single replicates (Fig S1F); for Relative H3K9me3 expression: single replicates (Fig S1G); for GFP positive cells in total cells, Ave / GFP positive cells in total cells: transfected cells; for GFP positive cells in total cells, Ave / GFP relative expression in Western Blot, Ave: average (Fig S1D); for GFP positive cells in total cells / GFP relative expression in Western Blot: single replicates (Fig S1D).
Source text: as §2
Protein was extracted from cells using a radioimmunoprecipitation assay (RIPA) buffer (50 mM Tris-Cl, pH 7.5, 150 mM NaCl, 1% NP-40, 0.1% SDS, and 10% sodium deoxycholate). Samples were separated by sodium dodecyl sulfate-polyacrylamide gel electrophoresis (SDS-PAGE) and transferred to polyvinylidene difluoride (PVDF) membranes. Blotted membranes were blocked with 3% skimmed milk in TBS-T buffer (20 mM Tris pH 7.6, 150 mM NaCl, and 0.05% Tween 20) for 1 h followed by incubation with specific primary antibodies. Horseradish peroxidase (HRP)-conjugated goat anti-mouse, goat anti-rabbit, and mouse anti-goat IgG antibodies (Pierce, Thermo Fisher Scientific, Inc., Rockford, IL, USA) were used as secondary antibodies. Peroxidase activity was detected by chemiluminescence using an ECL kit (Intron, Seoul, Korea) following the manufacturer’s instructions. Bands were quantified using Image J software (National Institute of Health, NIH).
as §3, §4
WT-LA with CSIM sequence was mutated to ASIM. B. Sequence of expression vector encoding progerin-C611A with a single point mutation in CaaX motif. Progerin with CSIM sequence was mutated to ASIM.
C. Transient transfection of HEK293 cells with LA-C661A or PG-C611A seems to be indistinguishable from that of authentic WT-LA, or progerin. D. Measurement of proteins (GFP-LA, GFP-LA-C661A, GFP-PG, and GFP-PG-C611A) expression by counting of GFP-positive cells and western blot analysis. The blue […]
fluorescence images were randomly selected and the number of GFP expressing cells were calculated. The […]
experiment; two-tailed Student’s t-test), N.S: not significant. Quantification of western blot by Ima ge J software (National Institute of Health, NIH). […]
Quantification of GFP -tagged expression vector encoding e mpty (EV), wild-type lamin A (WT-LA), lamin A-C661A (LA-C661A), progerin, or progerin- C611A. Blots of GFP expression were quantified using Image J software. (n = 3 independent experiment; two- tailed Student’s t -test), N.S: not significant. G.
Quantification of H3K9me3 expression. […]
(In western blotting, separated proteins are transferred to a membrane and probed.)

Substitutions are numbered along the chain they refer to. Numbers in names are those of the source. Where “and” joins values, the source holds several entries; their conditions need not be identical. Equal values may be shown once.

As to `C[C@@H]1C[C@H]2[C@@H]3CCC4=CC(=O)C=C[C@]4(C)[C@@]3(F)[C@@H](O)C[C@]2(C)[C@@]1(O)C(=O)CO` [Dexamethasone], in data set [1], the Plasma protein binding stood at 62.1 % Bound. Also, the fraction unbound was 0.345 in data set [1] (human, plasma) and 0.156 in data set [2].

B1: PG-C611A (protein)
chain: METPSQRRATRSGAQASSTPLSPTRITRLQEKEDLQELNDRLAVYIDRVRSLETENAGLRLRITESEEVVSREVSGIKAAYEAELGDARKTLDSVAKERARLQLELSKVREEFKELKARNTKKEGDLIAAQARLKDLEALLNSKEAALSTALSEKRTLEGELHDLRGQVAKLEAALGEAKKQLQDEMLRRVDAENRLQTMKEELDFQKNIYSEELRETKRRHETRLVEIDNGKQREFESRLADALQELRAQHEDQVEQYKKELEKTYSAKLDNARQSAERNSNLVGAAHEELQQSRIRIDSLSAQLSQLQKQLAAKEAKLRDLEDSLARERDTSRRLLAEKEREMAEMRARMQQQLDEYQELLDIKLALDMEIHAYRKLLEGEEERLRLSPSPTSQRSRGRASSHSSQTQGGGSVTKKRKLESTESRSSFSQHARTSGRVAVEEVDEEGKFVRLRNKSNEDQSMGNWQIKRQNGDDPLLTYRFPPKFTLKAGQVVTIWAAGAGATHSPPTDLVWKAQNTWGCGNSLRTALINSTGEEVAMRKLVRSVTVVEDDEDEDGDDLLHHHHGSHCSSSGDPAEYNLRSRTVLCGTCGQPADKASASGSGAQSPQNASIM
modifications: left off: GFP, end not stated, kept
Consider B1, for which, in the data set on HEK293 cells [3], the “% of deformed nuclei in GFP positive cells, Ave” value (shortened to “% of deformed nuclei … Ave”) came to 97.7143%; the “% of deformed nuclei in GFP positive cells” value is 95% and 100% and 96% and 98%. In the data set on HEK293 cells [4], the “GFP relative expression (ratio), Ave” value stood at 0.82; the “Relative H3K9me3 expression, Ave” value was determined as 2.153; the “GFP relative expression (ratio)” value is 0.9957 and 0.6855 and 0.7789; the “Relative H3K9me3 expression” value was 2.22 and 2.38 and 1.86. Also, in the data set on HEK293 cells [4], the “GFP positive cells in total cells, Ave” value turned out to be 0.7166; the “GFP positive cells in total cells” value was 0.624 (2×) and 0.546 and 0.585 and 0.819 and 0.897 and 0.78 and 0.858.

B2: LA (protein, UniProt P02545 1-661, looked up)
Prelamin-A/C: METPSQRRATRSGAQASSTPLSPTRITRLQEKEDLQELNDRLAVYIDRVRSLETENAGLRLRITESEEVVSREVSGIKAAYEAELGDARKTLDSVAKERARLQLELSKVREEFKELKARNTKKEGDLIAAQARLKDLEALLNSKEAALSTALSEKRTLEGELHDLRGQVAKLEAALGEAKKQLQDEMLRRVDAENRLQTMKEELDFQKNIYSEELRETKRRHETRLVEIDNGKQREFESRLADALQELRAQHEDQVEQYKKELEKTYSAKLDNARQSAERNSNLVGAAHEELQQSRIRIDSLSAQLSQLQKQLAAKEAKLRDLEDSLARERDTSRRLLAEKEREMAEMRARMQQQLDEYQELLDIKLALDMEIHAYRKLLEGEEERLRLSPSPTSQRSRGRASSHSSQTQGGGSVTKKRKLESTESRSSFSQHARTSGRVAVEEVDEEGKFVRLRNKSNEDQSMGNWQIKRQNGDDPLLTYRFPPKFTLKAGQVVTIWAAGAGATHSPPTDLVWKAQNTWGCGNSLRTALINSTGEEVAMRKLVRSVTVVEDDEDEDGDDLLHHHHGSHCSSSGDPAEYNLRSRTVLCGTCGQPADKASASGSGAQVGGPISSGSSASSVTVTRSYRSVGGSGGGSFGDNLVTRSYLLGNSSPRTQSPQNC
Take B2: in the data set on HEK293 cells [4], the “GFP relative expression in Western Blot, Ave” value is 1.171; the “GFP relative expression (ratio), Ave” value is on record as 0.7757; the “Relative H3K9me3 expression, Ave” value is 4.873; the “GFP relative expression in Western Blot” value is 1.2 and 1.286 and 1.029. In addition, in the data set with HEK293 cells [4], the “GFP relative expression (ratio)” value was 0.8616 and 0.6545 and 0.811; the “Relative H3K9me3 expression” value is 5.1 and 4.62 and 4.9; the “GFP positive cells in total cells, Ave” value stood at 0.7312; the “GFP positive cells in total cells” value was 0.897 and 0.585 and 0.741 (2×) and 0.546 and 0.819 (2×) and 0.702.

B3: LA-C661A (protein, UniProt P02545 1-661, looked up, variant C661A)
Prelamin-A/C: B2 Prelamin-A/C with C661A
Take B3: in the data set on HEK293 cells [3], the “% of deformed nuclei … Ave” value was found to be 7.286%; the “% of deformed nuclei in GFP positive cells” value was 8% and 6% and 10% and 5% and 9%. Besides, in the data set with HEK293 cells [4], the “GFP relative expression in Western Blot, Ave” value came out at 1.219; the “GFP relative expression (ratio), Ave” value is 0.7753; the “Relative H3K9me3 expression, Ave” value is on record as 4.563; the “GFP relative expression in Western Blot” value was 1.3 and 1.171 and 1.186. For the same molecule, in the data set with HEK293 cells [4], the “GFP relative expression (ratio)” value was 0.9644 and 0.614 and 0.7475; the “Relative H3K9me3 expression” value is 5.03 and 4.5 and 4.16; the “GFP positive cells in total cells, Ave” value amounted to 0.7264; the “GFP positive cells in total cells” value was 0.819 and 0.936 and 0.741 (2×) and 0.546 and 0.585 and 0.78 and 0.663.

B4: WT-LA (protein)
chain: METPSQRRATRSGAQASSTPLSPTRITRLQEKEDLQELNDRLAVYIDRVRSLETENAGLRLRITESEEVVSREVSGIKAAYEAELGDARKTLDSVAKERARLQLELSKVREEFKELKARNTKKEGDLIAAQARLKDLEALLNSKEAALSTALSEKRTLEGELHDLRGQVAKLEAALGEAKKQLQDEMLRRVDAENRLQTMKEELDFQKNIYSEELRETKRRHETRLVEIDNGKQREFESRLADALQELRAQHEDQVEQYKKELEKTYSAKLDNARQSAERNSNLVGAAHEELQQSRIRIDSLSAQLSQLQKQLAAKEAKLRDLEDSLARERDTSRRLLAEKEREMAEMRARMQQQLDEYQELLDIKLALDMEIHAYRKLLEGEEERLRLSPSPTSQRSRGRASSHSSQTQGGGSVTKKRKLESTESRSSFSQHARTSGRVAVEEVDEEGKFVRLRNKSNEDQSMGNWQIKRQNGDDPLLTYRFPPKFTLKAGQVVTIWAAGAGATHSPPTDLVWKAQNTWGCGNSLRTALINSTGEEVAMRKLVRSVTVVEDDEDEDGDDLLHHHHGSHCSSSGDPAEYNLRSRTVLCGTCGQPADKASASGSGAQVGGPISSGSSASSVTVTRSYRSVGGSGGGSFGDNLVTRSY
modifications: left off: GFP, end not stated, state not stated
On to B4, for which, in the data set with HEK293 cells [3], the “% of deformed nuclei … Ave” value came to 7%; the “% of deformed nuclei in GFP positive cells” value is 6% and 8% and 4% and 9% and 12%.

As usually defined, the fraction unbound is the share of the substance not bound to proteins or other matrix. A higher fraction unbound goes with much free substance.
